Measured values: patent US20240254222A1 (Bayer, published 2024)
Substitutions are numbered along the chain they refer to.

T1: human wild-type Sema3A of SEQ ID NO: 600, expressed by HEK293 cells (human, UniProt Q14563 22-771, limits assumed)
T1 sequence: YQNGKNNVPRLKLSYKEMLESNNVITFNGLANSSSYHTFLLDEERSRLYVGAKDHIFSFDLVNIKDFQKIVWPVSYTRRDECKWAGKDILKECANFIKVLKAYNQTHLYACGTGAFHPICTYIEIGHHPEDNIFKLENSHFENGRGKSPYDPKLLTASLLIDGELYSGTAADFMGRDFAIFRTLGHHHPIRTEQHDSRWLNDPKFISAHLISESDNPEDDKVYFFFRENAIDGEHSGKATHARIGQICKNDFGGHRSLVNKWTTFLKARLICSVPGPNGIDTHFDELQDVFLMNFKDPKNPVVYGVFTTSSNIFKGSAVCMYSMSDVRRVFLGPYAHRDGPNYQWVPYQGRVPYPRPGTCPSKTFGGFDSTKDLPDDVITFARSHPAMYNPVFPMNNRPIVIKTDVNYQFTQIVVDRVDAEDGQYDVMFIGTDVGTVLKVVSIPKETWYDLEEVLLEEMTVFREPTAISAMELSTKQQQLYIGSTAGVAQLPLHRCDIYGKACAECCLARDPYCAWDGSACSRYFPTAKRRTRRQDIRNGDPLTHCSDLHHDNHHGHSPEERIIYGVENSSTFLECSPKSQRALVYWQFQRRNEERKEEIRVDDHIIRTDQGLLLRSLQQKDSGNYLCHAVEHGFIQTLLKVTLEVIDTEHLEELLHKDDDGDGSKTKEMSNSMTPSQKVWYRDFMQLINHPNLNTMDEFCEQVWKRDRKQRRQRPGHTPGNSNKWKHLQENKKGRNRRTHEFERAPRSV

T2: Rat Semaphorin3A-Sema Domain, TPP-19120 (rat, UniProt Q63548 21-569)
T2 construct: produced inhouse
T2 sequence: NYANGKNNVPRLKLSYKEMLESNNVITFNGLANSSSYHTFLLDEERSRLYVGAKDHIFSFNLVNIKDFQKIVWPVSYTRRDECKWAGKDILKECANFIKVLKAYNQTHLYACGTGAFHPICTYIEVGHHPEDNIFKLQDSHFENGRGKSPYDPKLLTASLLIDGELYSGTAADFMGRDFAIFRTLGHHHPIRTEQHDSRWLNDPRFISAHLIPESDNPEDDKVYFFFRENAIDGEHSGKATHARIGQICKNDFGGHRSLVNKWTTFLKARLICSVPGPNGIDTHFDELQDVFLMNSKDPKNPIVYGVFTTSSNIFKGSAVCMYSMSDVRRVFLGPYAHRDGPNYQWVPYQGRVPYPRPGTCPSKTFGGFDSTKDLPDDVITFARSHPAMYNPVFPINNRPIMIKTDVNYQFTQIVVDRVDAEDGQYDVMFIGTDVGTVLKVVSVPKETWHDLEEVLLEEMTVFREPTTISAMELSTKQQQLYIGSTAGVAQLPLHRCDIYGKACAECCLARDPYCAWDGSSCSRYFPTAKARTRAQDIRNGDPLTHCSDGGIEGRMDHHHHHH

B1: TPP-17755 (antibody, human IgG1, lambda, V domains shown)
VH: EVQLLESGGGLVQTGGSLRLSCAASGFTFSDYAMSWVRQAPGKGLEWVSWIYYDSGSKYYADSVKGRFTISRDNSKNTLYLQMNSLRAEDTAVYYCAKLNGDFDYWGQGTLVTVSS
VL: QSVLTQPPSASGTPGQRVTISCSGSSSNIGNNDVSWYQQLPGTAPKLLIYADSHRPSGVPDRFSGSKSGTSASLAISGLRSEDEADYYCGAWDSSLSGYVFGGGTKLTVLG
notes: also called Samsung; Samsung Prior Art F11
B2: TPP-15374 (antibody, human IgG1, lambda, V domains shown)
VH: EVQLLESGGGLVQPGGSLRLSCAASGFTFSSYEMNWVRQAPGKGLEWVSGISWNSGSIGYADSVKGRFTISRDNSKNTLYLQMNSLRAEDTAVYYCARSGYSSSWFDPDFDYWGQGTLVTVSS
VL: QSVLTQPPSASGTPGQRVTISCTGSSSNIGAGYDVHWYQQLPGTAPKLLIYGNSNRPSGVPDRFSGSKSGTSASLAISGLRSEDEADYYCSSYAGSNPYVVFGGGTKLTVLG
notes: human IgG1; also called IgG1, hit from panning; parental mAb
B3: TPP-23337 (antibody, human IgG4 S228P, lambda, V domains shown)
VH: EVQLLESGGGLVQPGGSLRLSCAASGFTFSSYAMSWVRQAPGKGLEWVSAIGYGGDTYYADSVKGRFTISRDNSKNTLYLQMNSLRAEDTAVYYCARRDDYTSRDAFDYWGQGTLVTVSS
VL: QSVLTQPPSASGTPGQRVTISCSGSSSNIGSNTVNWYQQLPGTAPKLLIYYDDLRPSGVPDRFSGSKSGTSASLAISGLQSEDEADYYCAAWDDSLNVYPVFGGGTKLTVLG
B4: TPP-23334 (antibody, human IgG4 S228P, lambda, V domains shown)
VH: B3 VH
VL: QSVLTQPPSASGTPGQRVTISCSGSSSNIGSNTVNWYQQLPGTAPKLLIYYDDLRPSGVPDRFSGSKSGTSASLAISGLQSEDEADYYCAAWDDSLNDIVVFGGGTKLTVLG
B5: TPP-23374 (antibody, human IgG4 S228P, lambda, V domains shown)
VH: B3 VH with S30Y
VL: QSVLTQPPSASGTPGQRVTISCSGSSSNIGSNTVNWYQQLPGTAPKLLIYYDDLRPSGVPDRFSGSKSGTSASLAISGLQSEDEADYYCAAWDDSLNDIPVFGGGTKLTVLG
B6: TPP-23298 (antibody, human IgG4 S228P, lambda, V domains shown)
VH: B3 VH with S30Y, Y53T
VL: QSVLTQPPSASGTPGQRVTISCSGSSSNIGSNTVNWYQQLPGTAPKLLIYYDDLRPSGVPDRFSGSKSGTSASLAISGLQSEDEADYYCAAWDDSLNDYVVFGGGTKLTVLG
B7: TPP-23373 (antibody, human IgG4 S228P, lambda, V domains shown)
VH: B3 VH with S30Y
VL: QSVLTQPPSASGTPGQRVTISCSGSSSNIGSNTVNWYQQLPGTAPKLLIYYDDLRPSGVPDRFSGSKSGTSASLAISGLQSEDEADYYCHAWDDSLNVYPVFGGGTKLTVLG
B8: TPP-23375 (antibody, human IgG4 S228P, lambda, V domains shown)
VH: B3 VH with S30Y
VL: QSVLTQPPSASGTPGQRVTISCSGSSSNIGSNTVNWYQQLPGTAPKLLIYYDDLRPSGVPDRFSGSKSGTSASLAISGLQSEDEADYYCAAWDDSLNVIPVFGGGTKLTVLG
B9: TPP-23340 (antibody, human IgG4 S228P, lambda, V domains shown)
VH: B3 VH
VL: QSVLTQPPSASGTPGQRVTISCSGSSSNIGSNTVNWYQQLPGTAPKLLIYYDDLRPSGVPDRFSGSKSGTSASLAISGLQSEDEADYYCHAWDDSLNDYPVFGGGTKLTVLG
B10: TPP-23341 (antibody, human IgG4 S228P, lambda, V domains shown)
VH: B3 VH
VL: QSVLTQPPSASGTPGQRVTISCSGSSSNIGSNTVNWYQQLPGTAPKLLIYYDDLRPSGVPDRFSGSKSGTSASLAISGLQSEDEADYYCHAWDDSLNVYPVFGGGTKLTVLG
B11: TPP-11489 (antibody, human IgG1, lambda)
heavy: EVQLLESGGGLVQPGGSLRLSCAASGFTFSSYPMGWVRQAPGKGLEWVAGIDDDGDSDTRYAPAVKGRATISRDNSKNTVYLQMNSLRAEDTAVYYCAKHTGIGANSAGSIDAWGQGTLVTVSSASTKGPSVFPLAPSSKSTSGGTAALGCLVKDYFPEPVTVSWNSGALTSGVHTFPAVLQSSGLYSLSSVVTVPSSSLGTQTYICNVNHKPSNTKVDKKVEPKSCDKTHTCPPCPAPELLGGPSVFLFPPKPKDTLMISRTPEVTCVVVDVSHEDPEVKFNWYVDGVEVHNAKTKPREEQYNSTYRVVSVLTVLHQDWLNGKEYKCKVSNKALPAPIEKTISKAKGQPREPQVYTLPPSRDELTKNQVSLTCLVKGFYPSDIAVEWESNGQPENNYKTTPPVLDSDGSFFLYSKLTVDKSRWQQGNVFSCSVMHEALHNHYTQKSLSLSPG
light: SYELTQPPSVSVSPGQTARITCSGGGSYTGSYYYGWYQQKPGQAPVTVIYYNNKRPSDIPERFSGSLSGTTNTLTISGVQAEDEADYYCGSADNSGDAFGTGTKVTVLGQPKAAPSVTLFPPSSEELQANKATLVCLISDFYPGAVTVAWKADSSPVKAGVETTTPSKQSNNKYAASSYLSLTPEQWKSHRSYSCQVTHEGSTVEKTVAPTECS
notes: human IgG1; also called Chiome; Chiome Prior Art (hIgG1)
B12: TPP-30788 (antibody, human IgG1, kappa, V domains shown)
VH: EVQLVESGGGLVQPGGSLRLSCAASGFTFSSYYMSWVRQAPGKGLEWVSTIIKSGGYAYYPDSVKDRFTISRDNSKNTLYLQMSSLRAEDTAVYYCVRGGQGAMDYWGQGTTVTVSS
VL: EIVLTQSPATLSLSPGERATLSCRASQSIGDYLHWYQQKPGQAPRLLIKYASQSISGIPARFSGSGSGTDFTLTITSLEPEDFAVYYCQQGYSFPYTFGGGTKLEIKR
notes: prior art, WO 2020/225400; also called BI clone I; Böhringer (BI) Clone I
B13: TPP-30789 (antibody, human IgG1, kappa, V domains shown)
VH: B12 VH with T28P
VL: B12 VL
notes: prior art, WO 2020/225400; also called BI clone II; Böhringer (BI) Clone II
B14: TPP-30790 (antibody, human IgG1, kappa, V domains shown)
VH: B12 VH with P14L, S84N, R98K
VL: B12 VL with K49Y, T76S
notes: prior art, WO 2020/225400; also called BI clone III; Böhringer (BI) Clone III
B15: TPP-30791 (antibody, human IgG1, kappa, V domains shown)
VH: B12 VH with V12L, P14L, Y80N, S84N, R98K
VL: B12 VL with T76S
notes: prior art, WO 2020/225400; also called BI clone IV; Böhringer (BI) Clone IV
B16: TPP-23338 (antibody, human IgG4 S228P, lambda, V domains shown)
VH: B3 VH
VL: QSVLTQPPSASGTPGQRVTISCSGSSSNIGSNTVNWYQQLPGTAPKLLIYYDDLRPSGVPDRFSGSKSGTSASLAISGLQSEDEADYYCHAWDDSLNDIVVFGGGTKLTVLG
B17: TPP-23345 (antibody, human IgG4 S228P, lambda, V domains shown)
VH: B3 VH
VL: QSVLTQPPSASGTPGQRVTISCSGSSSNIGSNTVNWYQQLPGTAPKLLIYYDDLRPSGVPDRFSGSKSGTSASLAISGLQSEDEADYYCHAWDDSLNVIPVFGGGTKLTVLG
B18: TPP-23347 (antibody, human IgG4 S228P, lambda, V domains shown)
VH: B3 VH with S30Y, S35L, Y53T
VL: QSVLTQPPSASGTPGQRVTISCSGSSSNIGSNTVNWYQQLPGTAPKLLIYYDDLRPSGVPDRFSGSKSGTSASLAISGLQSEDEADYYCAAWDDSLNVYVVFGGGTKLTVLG
B19: TPP-23346 (antibody, human IgG4 S228P, lambda, V domains shown)
VH: B3 VH with S30Y, S35L, Y53T
VL: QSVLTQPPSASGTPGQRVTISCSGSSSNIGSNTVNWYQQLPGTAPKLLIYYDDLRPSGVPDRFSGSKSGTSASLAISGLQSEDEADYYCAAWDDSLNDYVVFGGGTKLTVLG

These binders were tested against Human Semaphorin3A-Fc (R&D Systems), TPP-13211 (human) (assay: cell-based or functional assay).

Row | Binder | EC50 (nM), GCC assay [nM]
1 | B1 | 52.7
2 | B2 | 8.13
3 | B3 | 2.12
4 | B4 | 2.24
5 | B5 | 2.19
6 | B6 | 2.4

These binders were tested against T1, human wild-type Sema3A of SEQ ID NO: … (assay: cell-based or functional assay).

Row | Binder | EC50 (pM), HUVEC repulsion assay [pM]
7 | B3 | 170
8 | B7 | 180
9 | B4 | 120
10 | B5 | 77
11 | B6 | 80
12 | B8 | 123
13 | B9 | 180
14 | B10 | 113

What follows are binders tested against T2, Rat Semaphorin3A-Sema Domain, TPP-19120 (assay: SPR, captured antibody, Sema3A domain analyte).
Method: To assess the binding activity of anti-Sema3A antibodies binding assays were conducted using surface plasmon resonance (SPR). Binding assays were performed on a Biacore T200 instrument (Cytiva) at 25° C. using assay buffer HBS P+, 300 mM NaCl, 0.75 mM CaCl₂, 2.5 mM MgCl₂, 1 mg/ml BSA, 0.05% NaN₃. Antibodies were captured via anti-human Fc IgGs (“Human antibody capture kit”, Order No. BR100839, Cytiva) covalently amine coupled to a Series S CM5 sensor chip (Cytiva). The amine coupling was carried out according to the manufacturer's instructions using 1-ethyl-3-(3-dimethylaminopropyl) carbodiimide hydrochloride (EDC), N-hydroxysuccinimide (NHS) and ethanolamine HCl, pH 8.5 (“Amine Coupling Kit” BR-1000-50, Cytiva.). Human, mouse, cynomolgus, rat, dog and pig monovalent Sema3A domain were used as analytes in a concentration series from 0.024-3.125 nM in multi cycle kinetics mode. The sensor surface was regenerated with glycine pH 2.0 after each antigen injection. Obtained sensorgrams were double referenced (subtraction of reference flow cell signal and buffer injection) and were fitted to a 1:1 Langmuir binding model using the Biacore T200 Evaluation software obtaining the experimental fitted RMax value. To calculate the binding activity first the theoretical RMax needs to be calculated according to equation 1: […]
Binding activity was determined by dividing the experimental determined RMax by the theoretical calculated RMax according to equation 2: […]

Row | Binder | Binding Activity [%]
15 | B11 | 31
16 | B1 | 56
17 | B12 | 109
18 | B13 | 104
19 | B14 | 94
20 | B15 | 109
21 | B2 | 94
22 | B6 | 108

The binders below were run against T3, Human Semaphorin3A-Fc (R&D Systems), TPP-13211 (human) (assay: competition ELISA on coated TPP-13211, competitor biotinylated TPP-15370).
T3 construct: R&D Systems 1250-S3; also called recombinant human Sema3A-Fc chimera
Method: For screening in a competition ELISA setup, human Sema3a (TPP-13211) was coated onto 384-well plates (Greiner bio-one, 781077) with a concentration of 0.5 μg/ml in coating buffer (Carbonate-Basis pH 9.6, Candor 121125) over night at 10° C. After washing the plates 3 times with 50 μl PBS 0.05% Tween the plates were blocked with 50 μl Smart Block® (Candor 113500) for 1 h at 20° C. and washed again 3 times as described.
Subsequently, 20 μl of pre-mixed antibody solution was added to the plates and incubate for 18 h at 10° C. […] The total concentration of the added antibody solution was 0.25 μg/ml. During the incubation time the antibodies bound to the plates in a competitive manner as they compete for the same epitope on the human Sema3A protein.
After subsequent washing with 50 μl PBS 0.05% Tween for 3 times, 20 μl of a Streptavidin-HRP solution (R&D Systems, DY998, 1:200 in PBS 0.05% Tween 10% Smart Block) were added and incubated for 1 h and 20° C. followed by subsequent washing 3 times with 50 μl PBS 0.05% Tween and addition of 20 μl Amplex Red solution (Invitrogen A12222, 1:1000 in NaP-buffer 50 mM pH7.6 with 1:10000 of 30% H2O2). After a final incubation for 20 min at 20° C. the signal was determined using an emission wavelength of 595 nm and excitation of 530 nm.

T3 sequence (chain, as listed by the source limits assumed): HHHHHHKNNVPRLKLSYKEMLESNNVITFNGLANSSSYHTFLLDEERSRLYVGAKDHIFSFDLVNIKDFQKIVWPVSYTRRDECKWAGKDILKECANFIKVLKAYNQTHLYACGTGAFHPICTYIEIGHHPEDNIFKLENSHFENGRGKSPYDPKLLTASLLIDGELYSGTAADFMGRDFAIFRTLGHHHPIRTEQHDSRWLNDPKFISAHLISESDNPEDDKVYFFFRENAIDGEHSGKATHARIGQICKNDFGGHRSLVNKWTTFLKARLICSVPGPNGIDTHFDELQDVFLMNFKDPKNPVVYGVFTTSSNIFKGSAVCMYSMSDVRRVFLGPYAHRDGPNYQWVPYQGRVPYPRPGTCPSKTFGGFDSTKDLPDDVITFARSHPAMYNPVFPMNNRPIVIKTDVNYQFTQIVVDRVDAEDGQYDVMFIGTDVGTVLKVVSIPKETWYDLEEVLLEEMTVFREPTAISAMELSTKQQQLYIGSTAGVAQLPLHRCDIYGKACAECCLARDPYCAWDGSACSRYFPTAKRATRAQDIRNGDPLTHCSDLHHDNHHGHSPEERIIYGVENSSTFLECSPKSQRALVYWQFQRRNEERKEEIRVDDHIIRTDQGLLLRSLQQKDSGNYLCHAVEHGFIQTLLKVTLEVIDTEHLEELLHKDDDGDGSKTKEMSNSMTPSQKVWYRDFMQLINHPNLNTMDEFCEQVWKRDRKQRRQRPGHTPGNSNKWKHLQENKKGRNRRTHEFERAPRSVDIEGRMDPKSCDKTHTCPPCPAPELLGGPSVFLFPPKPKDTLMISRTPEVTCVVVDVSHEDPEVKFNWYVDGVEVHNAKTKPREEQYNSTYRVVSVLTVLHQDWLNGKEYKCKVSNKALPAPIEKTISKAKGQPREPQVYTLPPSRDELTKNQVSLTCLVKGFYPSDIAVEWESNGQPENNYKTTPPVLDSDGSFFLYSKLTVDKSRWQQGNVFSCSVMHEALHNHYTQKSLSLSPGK

Row | Binder | VAL norm to TPP-9809 (1 to 1 ratio) | VAL norm to TPP-9809 (1 to 5 ratio)
23 | B3 | 0.27 | 0.14
24 | B16 | 0.33 | –
25 | B17 | 0.27 | 0.08
26 | B7 | 0.35 | 0.2
27 | B4 | 0.28 | 0.11
28 | B5 | 0.19 | 0.08
29 | B18 | 0.3 | 0.16
30 | B19 | 0.22 | 0.13
31 | B6 | 0.18 | 0.09
32 | B8 | 0.3 | 0.16
33 | B9 | 0.4 | –
34 | B10 | 0.38 | 0.18
